Measurements: the supplement of paper PMC9170038

Test system: MS2 coat protein
Assay: apparent KD of MS2 coat protein; designed switch direction (-1 OFF switch, 1 ON switch): -1; higher = weaker reporter binding
Procedure, shortened: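 RNA switches sharing common flanks were transcribed by stalled E. coli RNA polymerase on Illumina chips. A doubling series of SNAP-549-labelled MS2 coat protein, from 0.7 or 1.5 nM to 3 µM, was applied in Tris-HCl pH 7.5 buffer with KCl, MgCl2, BSA, DTT, tRNA and Tween-20. Each step lasted 0.8–1.5 h at the bottom of the series and 10–20 min at the top. Normalised cluster fluorescence was curve-fitted, giving apparent KD as the per-design median over clusters.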

[1] = Eterna round: R95, input ligand: microRNA oligo, concentration not stated
[2] = Eterna round: R95, input ligand: FMN 200 uM
[3] = Eterna round: R95, input ligand: none
[4] = input ligand: microRNA oligo, concentration not stated

Sequence	apparent KD of MS2 coat protein [1] [nM]	apparent KD of MS2 coat protein [2] [nM]	apparent KD of MS2 coat protein [3] [nM]	apparent KD of MS2 coat protein (input ligand: FMN 200 uM) [nM]	apparent KD of MS2 coat protein (input ligand: none) [nM]	apparent KD of MS2 coat protein [4] [nM]
AACGAUCUAGGAUAUACAUGAGGAUCACCCAUGUAAGAGCCCGAACCGGGCUCCCUCUGUAGAAGGAGGUCAAA [Rileququve] (puzzle: Exclusion 3)	27.3	–	–	–	–	–
AAGAAGUGAGGAUAUGCAAAGAAAGAAAGAAAGAAAGAAAAGCAGAAGGCACAUGAGGAUCACCCAUGUAAAGA [Fourth Time] (puzzle: Exclusion 4)	16.5	20.5	15.6	–	–	–
GUAGCUGAUAAGGAUAUUGUACCUAACCUGCGUCGAGAAGGUGUCACAUGAGGAUCACCCAUGUUUAGGCAAAG [Eternabot (L2) Solution 22] (Eterna round: R97, puzzle: Exclusion 6)	–	–	–	24.4	29.5	–
AGUGCGUAUGUGAGGAUAUGCUGGUCCUUGGAUCGGCAGAAGGCACAUGAGGAUCACCCAUGUGGUGUCGUACA [salish99_Bmod_ex4_085] (puzzle: Brourd's mod of Exclusion 4)	257	21.5	263	–	–	–
GGUCUUCAAGUCAGGAUAUCGUCUAAUCGGUCUGGCGAGAAGGGACAUGAGGAUCACCCAUGUCGUCUCAUCAG [Ex4 #15] (Eterna round: R97, puzzle: Brourd's mod of Exclusion 4)	–	–	–	27.1	20.4	–
CCCGUGUUAGGAUAUACGGCACACCCACAAACGGGUAUAUAGUAGAAGGAACAUGAGGAUCACCCAUGUAAAAC [Qubexeer] (puzzle: Exclusion 4)	18.5	–	–	–	–	–
UUUUUUGUUGUGAGGAUAUCGUAUUCUUUUUGUUACGAGAAGGCACAUGAGGAUCACCCAUGUUUCUUGAUGUU [JR_BMOE4_Sub067] (puzzle: Brourd's mod of Exclusion 4)	15.3	–	–	–	–	–
UUUAAUUUUUUUUUUUUACAAGCUUUUUGCUCGUCUUAUACAUGAGGAUCACCCAUGUAGGUGAGAAGUAAAUUAUC [JMF 49] (puzzle: Sensor v3, turn-off variant 2)	168	19.3	23.3	–	–	–
AAAAGAACAGGAUAUUCGUGAAAUAACAUGAGGAUCACCCAUGUUAACGCGGGUGAGAACGAAGAAGGGUUCUAAA [Ceries] (puzzle: Exclusion 5)	42.1	121	61.4	–	–	–
UAUUAGUAAGGAUAUCCCACGUAGGACGAAAGUCCUACGUGGGAGAAGGUACAUGAGGAUCACCCAUGUCUAUU [Mod of Fisker 12 - Jieux - Exclusion 4] (Eterna round: R97, puzzle: Exclusion 4)	–	–	–	20.4	18.7	–
GCAGCAUAGUGUAAUAAACACAUACAUGAGGAUCACCCAUGUGAGGAUAUGGACUGGAUUACAGUCCAGAAGGCACAAAGCUGC [Zipper Style 1] (Eterna round: R96, puzzle: Exclusion NG 3)	–	–	–	18.7	17.8	15.9
AUUUAAACAUAGGAUAUCGAAUUUAUUAUUUAACGAGAAGGAUGAACAUGAGGAUCACCCAUGUGGUAUCAUGG [Mat - Exclusion 6 - JL Mod - D25] (puzzle: Exclusion 6)	815	693	260	–	–	–
AAACCUCGUGUAAGGAUAUCAAGGCUUAGCGGGUGUGAGAAGGUACAUGAGGAUCACCCAUGUCAUGAUUUACG [mod2 score 1 eternabot] (Eterna round: R97, puzzle: Brourd's mod of Exclusion 4)	–	–	–	798	252	–
GAGGGACAUGAGGAUCACCCAUGUGAGGAUAUGUAAGAGAGAGGAGAGAGGAUAAGAAACAGAAGGCGCGUGAG [JR_Exclu1_Sub089] (puzzle: Exclusion 1)	55.7	30.1	43.2	–	–	–
AAGAAGUGAGGAUAUCACCCUGCGCUACAGUUGCGCAGGCAUGAGAAGGCACUUGAGGAUCACCCAAGUCCUAU [Bitiri] (Eterna round: R97, puzzle: Exclusion 4)	–	–	–	212	23.6	–
UAUUAACAAGCAUGAUCCCACAUGAGGAUCACCCAUGUGCUCGUCUUAUAAGGUACUGUGACGAAAGUCACGGUACC [Sensor 3, v1 - 85] (puzzle: Sensor v3, turn-off variant 1)	139	132	144	–	–	–
UAAGUUUAGGUAGGAUAUACUUUUAAUUUCUCUUUCCUUACAUGAGGAUCACCCAUGUUUACAUUGUAGAAGGACCACUAUGUU [JR_ExcNG2_Sub053] (Eterna round: R96, puzzle: Exclusion NG 2)	–	–	–	17.8	26.4	18.3

Sequence	apparent KD of MS2 coat protein [1] [nM]	apparent KD of MS2 coat protein [2] [nM]	apparent KD of MS2 coat protein [3] [nM]	apparent KD of MS2 coat protein (input ligand: FMN 200 uM) [nM]	apparent KD of MS2 coat protein (input ligand: none) [nM]	apparent KD of MS2 coat protein [4] [nM]
UCCUGGCGAGGAUAUACAAUGUUAUUCGCGUGUAGUUGGAAACAUGAGGAUCACCCAUGUAGAAGGUGCUACUG [JR_Ex2_Sub025] (Eterna round: R97, puzzle: Exclusion 2)	–	–	–	27.4	23.8	–
AUUUAUGUUGAGGAUAUGCUAAAAUGUAUAGUUGCAGAAGGCGACACAUGAGGAUCACCCAUGUUCAUGGAAUU [LRO-Ex6-01] (puzzle: Exclusion 6)	31.3	–	–	–	–	–
GCGGACAAGAUGGAGACAUCAGAGACAUGAGGAUCACCCAUGUAGGAUAUCGAUUCGAAACGAAUCGAGAAGGGCAUAGUCCGC [JL denovo 2] (Eterna round: R96, puzzle: Exclusion NG 3)	–	–	–	16.8	19.2	13.3
CCCAGUUAGUCAGGAUAUCAUACAUGAGGAUCACCCAUGUAAUAAAUGAGGAUUUCGGGUGUCUAUGAGAAGGGACGGAUAGGC [Ostracism 28 - Jieux - Exclusion NG 2] (Eterna round: R96, puzzle: Exclusion NG 2)	–	–	–	29.6	24.5	18.8
UAUAAAACAUAGGAUAUCGAAUUAAUCAUUUAACGAGAAGGAUGAACAUGAGGAUCACCCAUGUGGUAUCAUGG [Mat - Exclusion 6 - JL Mod - D9] (puzzle: Exclusion 6)	61.5	333	129	–	–	–
UUUUUUUUGCGAGGAUAUGCAUUUAGUUAGUUAGCAGAAGGCGCGUUUCUAUACUCCUCUUCGUACAUGAGGAUCACCCAUGUU [JR_ExcNG1_Sub032] (Eterna round: R96, puzzle: Exclusion NG 1)	–	–	–	74.9	44.8	35.7
AUUCUCUCGGUGAGGAUAUGAGUAACGACGGCAGAUUAGAAGGUACAUGAGGAUCACCCAUGUGUGUUUGGGAU [Eternabot (L1) Solution 75] (Eterna round: R97, puzzle: Brourd's mod of Exclusion 4)	–	–	–	41.7	47.5	–
UUCAGUCAUCCUUAUUCUUACAUGAGGAUCACCCAUGUUUGUUUAAUUAAGUUUUGUAAGUUUGUUGUUCGUUUUAU [JR_STOV1_v2_Sub073] (Eterna round: R97, puzzle: Sensor, turn-off variant 1)	–	–	–	47.9	50.3	–
UAUACACAUGAGGAUCACCCAUGUGAGGAUAUGCGUACGUUGUCCGUAGGCGACGUGCGCAGAAGGCGCAAGGU [Mat - Mod of JL D95] (puzzle: Exclusion 1)	61.4	–	–	–	–	–
UGAUCUAGCGGAGGAUAUACAUGAGGAUCACCCAUGUAUAGGCUAUGACCGUAGUCGUGGCACAUGUAGAAGGCCGCUAGAUCU [JL ENG2 3.78] (Eterna round: R96, puzzle: Exclusion NG 2)	–	–	–	43.7	15.2	12.8
UUUUUGUGAGGAUAUGCGUAGUAGAACAAUAGUACUACUACGUAGAAGGCACAUGAGGAUCACCCAUGUUCCUC [Fiskers Ex 4 Super stable 44 mod 15] (puzzle: Exclusion 4)	36.4	–	–	–	–	–
GGAGGGCUAGGAUAUGUAACAGGGAACUUGAGGAUCACCCAAGUGGCCGAAGGCACCCUGGCAGAAGGAGUAAAGA [Inmaislari] (Eterna round: R97, puzzle: Exclusion 5)	–	–	–	71.6	50.8	–
CUGGUGUGAGGAUAUCAGGACACAUCCGCGGGCGUGUCAAAUGAGAAGGCACAUGAGGAUCACCCAUGUGGGAC [Onquveatge] (puzzle: Exclusion 4)	44.2	57.1	53.2	–	–	–
AGUACUAACACGGUAGUGUUAGUACAAUAAGCUUGUGAAACAUGAGGAUCACCCAUGUCCUCAUAAGCUCGUCUUAU [salish99_TOv2_r3_057] (puzzle: Sensor v3, turn-off variant 2)	370	17.6	15.3	–	–	–
AUUUAGUCAGGAUAUUAGUAGUAAAUAAAUAAAAUUAUUACUGAGAAGGGACAUGAGGAUCACCCAUGUGUCUA [Salish 062 v8] (Eterna round: R97, puzzle: Exclusion 4)	–	–	–	44.4	24.9	–
GAGACUGGAGGAUAUACGAACUGGUGUAUCUGGAAGGAUCGACUUGAGGAUCACCCAAGUAGAAGGCUAGUGAA [Esgeti] (Eterna round: R97, puzzle: Exclusion 2)	–	–	–	395	40.5	–
UUUACAAGCUAUAGAUCCCACAUGAGGAUCACCCAUGUAGCUGCCAACGGUAGCUUUUUAUGGUUUGCUCGUCUUAU [JL TOV1 3.34] (Eterna round: R97, puzzle: Sensor, turn-off variant 1)	–	–	–	424	1210	–
